Assay results taken from paper PMC11249637, “Interaction of the Atypical Tetracyclines Chelocardin and Amidochelocardin with Renal Drug Transporters” (ACS Pharmacology & Translational Science, 2024).
“And” between values parts separate entries of the source, which are not always exact repeats. Equal entries are not always repeated.

Tests used:
p-gp = test system: p-gp; parameters: method as in PMID 27499331; conditions: cited from earlier work
[1] = test system: organic anion transporters; parameters: method as in PMID 27499331; conditions: cited from earlier work
[2] = substrate: CC(=O)C1=C(O)[C@@H](N)[C@H]2Cc3c(c(O)c4c(O)c(C)ccc4c3C)C(=O)[C@@]2(O)C1=O; assay: Three-point uptake (substrate assessment) in mOat3-overexpressing HEK293 cells; format: in vitro ADME, mouse; conditions: other: Michaelis–Menten fit, 0.1, 1 and 10 μM; 30.0 °C
Description: (§1) This is important to gain a better understanding of the underlying mechanisms of secretion into urine. Therefore, we assessed the amount of compound taken up by the vector and transporter cells at three different concentrations (1, 10, and 100 μM for mOat1 and mOct1; 0.1, 1, and 10 μM for mOat3) and at two different incubation periods (1 and 5 min for mOat1 and mOct1; 5 and 10 min for mOat3).
The incubation buffer contained CHD and CDCHD in a final concentration of 0.1, 1, and 10 μM. After 5 and 10 min, the incubation was terminated. In addition, the probe inhibitor probenecid (100 μM) was added in one concentration to 10 μM CHD and CDCHD, respectively, and after 5 and 10 min, the incubation was stopped. Inhibition of mOat3-mediated ^3H-ES (1 μM) uptake by 100 μM probenecid was performed as a control experiment. After 1 min, the incubation was terminated. […]
First, a calibration curve was prepared by spiking different concentrations of CHD and CDCHD into the cell matrix. […] Samples were analyzed using an Agilent 1290 Infinity II HPLC system coupled to an AB Sciex QTrap6500plus mass spectrometer. […]
(§2) For statistical testing of differences in uptake ratio or for the inhibitory effect, an ordinary one-way ANOVA test was performed using GraphPad Prism 9.5.1 software. […] Michaelis–Menten kinetics were determined using the Michaelis–Menten algorithm of GraphPad Prism 9.5.1 software. […]

[3] = substrate: CC(=O)C1=C(O)[C@@H](N)[C@H]2Cc3c(c(O)c4c(O)c(C)ccc4c3C)C(=O)[C@@]2(O)C1=O; assay: Three-point uptake (substrate assessment) in mOat1-overexpressing HEK293 cells; format: in vitro ADME, mouse; conditions: other: Michaelis–Menten fit, 1, 10 and 100 μM; 30.0 °C
Description: as §1
(§3) The incubation buffer contained CHD and CDCHD in a final concentration of 1, 10, and 100 μM. After 1 and 5 min, the incubation was terminated. In addition, the probe inhibitor probenecid (100 μM) was added in one concentration to 10 μM CHD and CDCHD, respectively, and after 1 and 5 min, the incubation was stopped. Inhibition of mOat1-mediated ^3H-PAH (10 μM) uptake by 100 μM probenecid was performed as a control experiment. After 1 min, the incubation was terminated. All experiments were conducted in triplicate.
(§4) First, a calibration curve was prepared by spiking different concentrations of CHD and CDCHD into the cell matrix. Caffeine was used as an internal standard. In addition, quality control samples (QCs) were prepared for CHD and CDCHD in a cell matrix. The following extraction procedures were used: 300 μL of acetonitrile/water (1:1) is added to the cell pellet (sample or calibration/QC sample) for 15 min at 2000 rpm on an Eppendorf MixMate vortex mixer. 10 μL of this extracted sample is used for further analysis. 10 μL of the extracted cell sample is further extracted with 25 μL of a mixture of methanol/acetonitrile (2:1) containing 12.5 ng/mL caffeine as an internal standard (on ice) for 5 min at 2000 rpm on an Eppendorf MixMate vortex mixer. Then, samples were spun down at 15,870 × g for 10 min. Supernatants were transferred to standard HPLC glass vials. Samples were analyzed using an Agilent 1290 Infinity II HPLC system coupled to an AB Sciex QTrap6500plus mass spectrometer. LC conditions were as follows: column: Agilent Zorbax Eclipse Plus C18, 50 × 2.1 mm, 1.8 μm; temperature: 30°C; injection volume: 5 μL per sample; flow rate: 700 μL/min. Samples were run under the following conditions. Solvents: A: 100% water +0.1% formic acid; solvent B: 100% acetonitrile +0.1% formic acid. The gradient for CDCHD was as follows: 99% A at 0 min, 99% A until 0.1 min, 99–90% A from 0.1 to 1.0 min, 90–50% A from 1.0 to 2.4 min, 50–35% A from 2.4 to 2.7 min, 35–0% A from 2.7 until 4.5 min, 0% A until 5.5 min, 0–99% from 5.5 to 5.7 min, 99% A until 6.0 min. […]
as §2

[4] = substrate: Cc1ccc2c(C)c3c(c(O)c2c1O)C(=O)[C@@]1(O)C(=O)C(C(N)=O)=C(O)[C@@H](N)[C@H]1C3; assay: as above; format: in vitro ADME, mouse; conditions: other: Michaelis–Menten fit, 1, 10 and 100 μM; 30.0 °C
Description: as §1, §3, §4, §2

[5] = substrate: CC(=O)C1=C(O)[C@@H](N)[C@H]2Cc3c(c(O)c4c(O)c(C)ccc4c3C)C(=O)[C@@]2(O)C1=O; assay: Three-point uptake (substrate assessment) in mOct1-overexpressing HEK293 cells; format: in vitro ADME, mouse; conditions: other: Michaelis–Menten fit, 1, 10 and 100 μM; 30.0 °C
Description: as §1
as §3, with “inhibitor decynium22 (50” for “inhibitor probenecid (100”, “of mOct1-mediated ^3H-MPP” for “of mOat1-mediated ^3H-PAH”, “by 50” for “by 100”, “μM decynium22” for “μM probenecid”
(§5) First, a calibration curve was prepared by spiking different concentrations of CHD and CDCHD into the cell matrix. Caffeine was used as an internal standard. In addition, quality control samples (QCs) were prepared for CHD and CDCHD in a cell matrix. The following extraction procedures were used: 300 μL of acetonitrile/water (1:1) is added to the cell pellet (sample or calibration/QC sample) for 15 min at 2000 rpm on an Eppendorf MixMate vortex mixer. 10 μL of this extracted sample is used for further analysis. 10 μL of the extracted cell sample is further extracted with 25 μL of a mixture of methanol/acetonitrile (2:1) containing 12.5 ng/mL caffeine as an internal standard (on ice) for 5 min at 2000 rpm on an Eppendorf MixMate vortex mixer. […] Samples were analyzed using an Agilent 1290 Infinity II HPLC system coupled to an AB Sciex QTrap6500plus mass spectrometer. […]
as §2

[6] = substrate: Cc1ccc2c(C)c3c(c(O)c2c1O)C(=O)[C@@]1(O)C(=O)C(C(N)=O)=C(O)[C@@H](N)[C@H]1C3; assay: as above; format: in vitro ADME, mouse; conditions: other: Michaelis–Menten fit, 1, 10 and 100 μM; 30.0 °C
Description: as §1
as §3, with “inhibitor decynium22 (50” for “inhibitor probenecid (100”, “of mOct1-mediated ^3H-MPP” for “of mOat1-mediated ^3H-PAH”, “by 50” for “by 100”, “μM decynium22” for “μM probenecid”
as §5, §2

CN(C)c1cc(CNCC(C)(C)C)c(O)c2c1C[C@H]1C[C@H]3[C@H](N(C)C)C(O)=C(C(N)=O)C(=O)[C@@]3(O)C(O)=C1C2=O [omadacycline]
Km (p-gp): ~82 µM | substrate or inhibitor of organic anion transporters (in words) [1]: neither a substrate nor an inhibitor

B1: mOat3 (Mus musculus) (protein)
chain: MTFSEILDRVGSMGPFQYLHVTLLALPILGIANHNLLQIFTATTPDHHCRPPPNASLEPWVLPLGPNGKPEKCLRFVHLPNASLPNDTQGATEPCLDGWIYNSTRDTIVTEWDLVCGSNKLKEMAQSVFMAGILVGGPVFGELSDRFGRKPILTWSYLLLAASGSSAAFSPSLTVYMIFRFLCGCSISGISLSTIILNVEWVPTSTRAISSTTIGYCYTIGQFILPGLAYAVPQWRWLQLSVSAAFFIFSLLSWWVPESIRWLVLSGKFSKALKTLQRVATFNGKKEEGEKLTVEELKFNLQKDITSAKVKYGLSDLFRVSILRRVTFCLSLAWFATGFAYYSLAMGVEEFGVNIYILQIIFGGVDIPAKFITILSISYLGRRITQGFLLILAGVAILALIFVSSEMQLLRTALAVFGKGCLSGSFSCLFLYTSELYPTVLRQTGMGISNIWARVGSMIAPLVKITGELQPFIPNVIFGTMTLLGGSAAFFLLETLNRPLPETIEDIQDWYQQTKKTKQEPEAEKASQTIPLKTGGP
notes: expressed in transfected cells; host or cells: HEK293
Km [2]: 6.1 µM and 6 µM | Vmax [2]: 26.42 nM/min

B2: mOat1 (Mus musculus) (protein)
chain: MAFNDLLKQVGGVGRFQLIQVTMVVAPLLLMASHNTLQNFTAAIPAHHCRPPANANLSKDGGLEAWLPLDKQGRPESCLRFPFPHNGTEANGTGVTEPCLDGWVYDNSTFPSTIVTEWNLVCSHRAFRQLAQSLFMVGVLLGAMMFGYLADRLGRRKVLILNYLQTAVSGTCAAYAPNYTVYCIFRLLSGMSLASIAINCMTLNMEWMPIHTRAYVGTLIGYVYSLGQFLLAGIAYAVPHWRHLQLAVSVPFFVAFIYSWFFIESARWYSSSGRLDLTLRALQRVARINGKQEEGAKLSIEVLQTSLQKELTLNKGQASAMELLRCPTLRRLFLCLSMLWFATSFAYYGLVMDLQGFGVSMYLIQVIFGAVDLPAKFVCFLVINSMGRRPAQLASLLLAGICILVNGIIPRGHTIIRTSLAVLGKGCLASSFNCIFLYTGELYPTMIRQTGLGMGSTMARVGSIVSPLISMTAEFYPSIPLFIFGAVPVAASAVTALLPETLGQPLPDTVQDLKSRSRGKQKQQQLEQQKQMIPLQVSTQEKNGL
notes: as for B1
Km [3]: 65.08 µM | Vmax [3]: 82.38 nM/min | Km [4]: 39.64 µM | Vmax [4]: 11.48 nM/min

B3: mOct1 (Mus musculus) (protein)
chain: MPTVDDVLEHVGEFGWFQKQAFLLLCLISASLAPIYVGIVFLGFTPDHHCRSPGVAELSQRCGWSPAEELNYTVPGLGSAGEASFLSQCMKYEVDWNQSTLDCVDPLSSLAANRSHLPLSPCEHGWVYDTPGSSIVTEFNLVCGDAWKVDLFQSCVNLGFFLGSLVVGYIADRFGRKLCLLVTTLVTSLSGVLTAVAPDYTSMLLFRLLQGMVSKGSWVSGYTLITEFVGSGYRRTTAILYQVAFTVGLVGLAGVAYAIPDWRWLQLAVSLPTFLFLLYYWFVPESPRWLLSQKRTTQAVRIMEQIAQKNRKVPPADLKMMCLEEDASERRSPSFADLFRTPSLRKHTLILMYLWFSCAVLYQGLIMHVGATGANLYLDFFYSSLVEFPAAFIILVTIDRIGRIYPIAASNLVAGAACLLMIFIPHELHWLNVTLACLGRMGATIVLQMVCLVNAELYPTFIRNLGMMVCSALCDLGGIFTPFMVFRLMEVWQALPLILFGVLGLSAGAVTLLLPETKGVALPETIEEAENLGRRKSKAKENTIYLQVQTGKSPHT
notes: as for B1
Km [5]: 8.91 µM and 8.9 µM | Vmax [5]: 49 nM/min | Km [6]: 55.2 µM
